Values joined by “and” are separate entries in the source; they are usually repeats but may differ in a detail not shown here. Equal values may be shown once.

Test [1] has as its target T1, human aquaporin 3 (AQP3) on cells (human, UniProt Q92482 1-292).
T1 construct: whole, on cells; Water channel membrane protein; also called human AQP3; AQP3 on HaCaT cells
T1 sequence (looked up): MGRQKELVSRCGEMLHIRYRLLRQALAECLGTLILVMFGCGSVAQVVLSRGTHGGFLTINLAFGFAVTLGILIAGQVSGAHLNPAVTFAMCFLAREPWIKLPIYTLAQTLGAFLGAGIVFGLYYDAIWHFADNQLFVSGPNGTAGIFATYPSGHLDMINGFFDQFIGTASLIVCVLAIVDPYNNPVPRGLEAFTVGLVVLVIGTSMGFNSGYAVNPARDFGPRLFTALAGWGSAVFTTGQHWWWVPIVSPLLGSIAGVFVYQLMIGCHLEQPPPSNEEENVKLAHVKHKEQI
The test can be described thus: fluorescence binding assay on HaCaT cells, 10 µg/mL (FIG. 5C).

In test [2] the target is T2, mouse aquaporin 3 (AQP3) on cells (mouse, UniProt Q8R2N1 1-292).
T2 construct: whole, on cells; Water channel membrane protein; also called mouse AQP3; AQP3 on PAM212 cells
T2 sequence (looked up): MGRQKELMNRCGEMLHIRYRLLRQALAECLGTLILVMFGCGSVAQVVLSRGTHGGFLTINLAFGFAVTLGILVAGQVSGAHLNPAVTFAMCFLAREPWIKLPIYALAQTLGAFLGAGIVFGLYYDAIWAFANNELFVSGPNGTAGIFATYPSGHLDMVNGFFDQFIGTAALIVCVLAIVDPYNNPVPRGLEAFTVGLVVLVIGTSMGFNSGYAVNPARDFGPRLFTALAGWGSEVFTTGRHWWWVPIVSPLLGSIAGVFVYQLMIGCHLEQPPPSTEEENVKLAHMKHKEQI
In words: fluorescence binding assay on PAM212 cells, 10 µg/mL (FIG. 5B). As for the experimental part:
PAM212 and macrophage cells were reacted with each anti AQP3 antibody (0.1, 1, or 10 μg/mL) at 4° C. for 1 hour. After washing the cells, a fluorescent-labeled secondary antibody was added and the reaction was allowed to occur additionally for 1 hour (4° C.). By measuring the fluorescence intensity, the binding property of each anti AQP3 antibody to cells was obtained.
The assay was also performed using PAM212 cells and antibodies A, B, C, D, E, F, G, H, and J at a concentration of 10 μg/mL. Binding of antibodies C, D, E, G, and J to PAM212 cells was statistically significant.

The target of test [3] is T3, oligopeptide ATYPSGHLDM (SEQ ID NO: 1) (human and mouse).
T3 construct: Synthetic peptide; positions 148 to 157 of the human AQP3 polypeptide, identical in mouse; also called peptide used for immunization; oligopeptide 5
T3 peptide: ATYPSGHLDM
The test can be described thus: ELISA on the immunogen peptide (FIG. 2). (An ELISA detects its analyte on a solid surface through an enzyme-linked reagent.)

Test [4] deals with T4, mouse AQP3 in lysate of HEK293T cells overexpressing mouse AQP3 and a myc-biotinylated tag (mouse, UniProt Q8R2N1 1-292).
T4 construct: Cell lysate used in ELISA; also called AQP3 containing cell lysate; not shown: myc-biotinylated tag
T4 sequence (looked up): T2 sequence (looked up)
The test can be described thus: ELISA on lysate of HEK293T cells overexpressing mouse AQP3 (FIG. 3). From the text: Cell lysate from HEK293T cells overexpressing mouse AQP3 and a myc-biotinylated tag was used in an ELISA assay to measure the binding of antibodies A, B, C, D, E, F, G, H, J, and K to AQP3. Cell lysate from HEK293T cells overexpressing the myc-biotinylated tag but not AQP3 was used as control. […] C. Antibody binding to AQP3 expressing cells

Test [5] addresses T3, oligopeptide ATYPSGHLDM (SEQ ID NO: 1). In words: ELISA on peptide SEQ ID NO:1, IgG, 50% binding response (FIG. 16A).
Test [6] concerns the target T5, oligopeptide FATYPSGHLDM (SEQ ID NO: 109).
T5 construct: Synthetic peptide, part of Loop C of AQP3
T5 peptide: FATYPSGHLDM
In words: ELISA on coated peptide. As for the experimental part: (§1) To determine the important amino acid residues of an epitope in Loop C involved in binding to specific AQP3 antibody clones, peptides of varying lengths were produced. The sequences of these peptides are shown in column 2 of Table 4.
(§2) The various peptides and AQP3 antibody clones were subjected to ELISA binding analyses. […] The microtiter wells (Costar 2690) were coated with 50 μL of each peptide at 4° C. overnight. The wells were washed 3 times with PBS and blocked with 100 μL of 1% BSA/PBS at 37° C. for 1 hour. Each antibody was adjusted to 1 μg/mL in 1% SBA/PBS as above then serially diluted 1:5 in 1% BSA/PBS. The blocker was discarded and the wells were incubated with 50 μL of antibodies at 37° C. for 1.5 hours. The wells were washed 3 times with PBS and mouse antibodies were detected with 50 μL of goat anti-mouse IgG (H+L) HRP conjugate (ThermoFisher 31438) (1:5,000 in 1% BSA/PBS) and rabbit antibodies were detected with 50 μL of goat anti-rabbit IgG (H+L) HRP conjugate (ThermoFisher 31462) (1:5,000 in 1% BSA/PBS) at 37° C. for 1 hour. The wells were washed 3 times with PBS and developed with 50 μL of HRP substrate at RT for 5 min then stopped with 50 μL of 2N sulfuric acid and binding was measured with a plate reader.

The target in test [7] is T6, oligopeptide ATYPSG (SEQ ID NO: 104).
T6 construct: Synthetic peptide, part of Loop C of AQP3
T6 peptide: ATYPSG
The test can be described thus: ELISA on coated peptide. As for the experimental part:
as §1, §2

Test [8] concerns the target T7, oligopeptide SGHLDM (SEQ ID NO: 99).
T7 construct: Synthetic peptide, part of Loop C of AQP3
T7 peptide: SGHLDM
In words: ELISA on coated peptide. On the procedure:
as §1, §2

Test [9] has as its target T8, oligopeptide PSGHLDM (SEQ ID NO: 98).
T8 construct: Synthetic peptide, part of Loop C of AQP3
T8 peptide: PSGHLDM
The test can be described thus: ELISA on coated peptide. As for the experimental part:
as §1, §2

The target in test [10] is T9, oligopeptide SGPNGTAGIFATYPS (SEQ ID NO: 94).
T9 construct: Synthetic peptide, part of Loop C of AQP3
T9 peptide: SGPNGTAGIFATYPS
The test can be described thus: ELISA on coated peptide. On the procedure:
as §1, §2

In test [11] the target is T10, oligopeptide AGIFATYPSGHLDM (SEQ ID NO: 106).
T10 construct: Synthetic peptide, part of Loop C of AQP3
T10 peptide: AGIFATYPSGHLDM
The test can be described thus: ELISA on coated peptide. As for the experimental part: as §1, §2

The target in test [12] is T11, oligopeptide YPSGHLDM (SEQ ID NO: 97).
T11 construct: Synthetic peptide, part of Loop C of AQP3; first diluted in DMSO
T11 peptide: YPSGHLDM
The test can be described thus: ELISA on coated peptide. On the procedure:
as §1, §2

Test [13] has as its target T12, oligopeptide ATYPSGH (SEQ ID NO: 103).
T12 construct: Synthetic peptide, part of Loop C of AQP3
T12 peptide: ATYPSGH
In words: ELISA on coated peptide. On the procedure: as §1, §2

The target in test [14] is T3, oligopeptide ATYPSGHLDM (SEQ ID NO: 1). The test can be described thus: ELISA on coated peptide. On the procedure:
as §1, §2

For test [15], the target named is T13, oligopeptide GIFATYPSGHLDM (SEQ ID NO: 107).
T13 construct: Synthetic peptide, part of Loop C of AQP3
T13 peptide: GIFATYPSGHLDM
The test can be described thus: ELISA on coated peptide. On the procedure:
as §1, §2

For test [16], the target named is T14, oligopeptide TAGIFATYPSGHLDM (SEQ ID NO: 105).
T14 construct: Synthetic peptide, part of Loop C of AQP3
T14 peptide: TAGIFATYPSGHLDM
The test can be described thus: ELISA on coated peptide. On the procedure: as §1, §2

Test [17] deals with T15, oligopeptide GHLDM (SEQ ID NO: 100).
T15 construct: Synthetic peptide, part of Loop C of AQP3
T15 peptide: GHLDM
The test can be described thus: ELISA on coated peptide. On the procedure:
as §1, §2

Test [18] addresses T16, oligopeptide TYPSGHLDM (SEQ ID NO: 96).
T16 construct: Synthetic peptide, part of Loop C of AQP3
T16 peptide: TYPSGHLDM
In words: ELISA on coated peptide. On the procedure: as §1, §2

Test [19] deals with T17, oligopeptide ATYPSGHL (SEQ ID NO: 102).
T17 construct: Synthetic peptide, part of Loop C of AQP3
T17 peptide: ATYPSGHL
In words: ELISA on coated peptide. As for the experimental part:
as §1, §2

Test [20] has as its target T18, oligopeptide ATYPSGHLD (SEQ ID NO: 101).
T18 construct: Synthetic peptide, part of Loop C of AQP3
T18 peptide: ATYPSGHLD
The test can be described thus: ELISA on coated peptide. On the procedure: as §1, §2

Test [21] deals with T19, oligopeptide IFATYPSGHLDM (SEQ ID NO: 108).
T19 construct: Synthetic peptide, part of Loop C of AQP3
T19 peptide: IFATYPSGHLDM
The test can be described thus: ELISA on coated peptide. As for the experimental part: as §1, §2

For test [22], the target named is T2, mouse aquaporin 3 (AQP3) on cells. In words: fluorescence binding assay on PAM212 cells, 10 µg/mL. On the procedure: PAM212 cells were reacted with each anti AQP3 antibody at concentrations of none, 1 ng/mL, 10 ng/mL, 100 ng/mL, 1 μg/mL, or 10 μg/mL at 4° C. for 1 hour. After washing the cells, a fluorescent-labeled secondary antibody was added and the reaction was allowed to occur additionally for 1 hour (at 4° C.). By measuring the fluorescence intensity, the binding property of each anti AQP3 antibody to cells was obtained.

Test [23] concerns the target T20, oligopeptide SRGTHGGFL (SEQ ID NO: 2).
T20 construct: Synthetic peptide of AQP3 Loop A; also called Loop A peptide; control peptide
T20 peptide: SRGTHGGFL
In words: ELISA on peptide SEQ ID NO:2 (FIG. 16B).

Test [24] concerns the target T1, human aquaporin 3 (AQP3) on cells. In words: fluorescence binding assay on HaCaT cells, 10 µg/mL. On the procedure:
HaCaT cells were reacted with each anti AQP3 antibody at concentrations of none, 1 ng/mL, 10 ng/mL, 100 ng/mL, 1 μg/mL, or 10 μg/mL at 4° C. for 1 hour. After washing the cells, a fluorescent-labeled secondary antibody was added and the reaction was allowed to occur additionally for 1 hour (at 4° C.). By measuring the fluorescence intensity, the binding property of each anti AQP3 antibody to cells was obtained.

B1: Antibody E (antibody, mouse IgG2a, kappa, V domains shown)
VH: EVKLLESGAELVRPGASVTLSCKASGYTFTDYEMHWVKQTPVHGLEWIGGIDPESGGTGYNQKFKGKAILTADKSSSTAYMELRSLTSEDSAVYFCTRSGYYGSPLLDYWGQGTTLTVSS
VL: QIVLSQSPAIMSASLGERVTMTCTASSSVSSSYLHWYQQKPGSSPKLWIYSTSNLASGVPARFSGSGSGTSYSLTISSMEAEDAATYYCHQYHRSPPTFGAGTKLEIKR
notes: also called anti AQP3 antibody E; Antiboy E
For the molecule B1, the binding result in test [1], in [2], in test [3] and in test [4] was “binds” in each case.

B2: SC-F8 (IgG) (antibody, V domains shown)
VH: QTVKESGGRLVTPGGSLTLTCTVSRFSLSNYAMTWVRQAPGKGLEWIGIINNDGISSTWYASWVKGRFTISKTSTTMDLKMTSLTTEDTATYFCARGGTSGYDIWGPGTLVTVSL
VL: AQVLTQTPSPVSAAVGGTVTINCQSSPSVYKNYLSWYQQKPGQPPKLLIYGASTLASGVPSRFKGSGSGTQFTLTISDVQCDDAATYYCAGGYRGSSDIFAFGGGTEVVVK
notes: also called anti AQP3 antibody SC-F8
With B2, in test [5], the EC50 is 0.01 µg/mL and ~0.06 nM. Further, the “binding signal (plate reader)” value amounted to 3.92 in test [6]; 1.77 in [7]; 0.071 in [8]; 1.56 in test [9]; 2.99 in test [10]; 3.92 in test [11]. Moreover, the “binding signal (plate reader)” value turned out to be 3.94 in [12]; 3.81 in test [13]; 3.97 in [14]; 3.86 in [15]; 4 in [16]; 0.06 in test [17]. For the same molecule, the “binding signal (plate reader)” value in test [18] was 3.92; in test [19], 3.99; in test [20], 3.91; in [21], 3.91. In addition, the “fold fluorescence intensity over no antibody” value in test [22] was not below 2 fold; in test [24], more than 2 fold. Besides, the binding result in test [23] is listed as “no binding”.

In general, EC50 refers to the midpoint of the concentration-response curve. Read a high EC50 as lower potency in that assay.

The record behind these values is US20220298237A1 (KEIO UNIVERSITY, published 2022).
